How the values were obtained:
Format in all cases: biochemical
Design in all cases: key to Activity of mutant relative to wild-type Gaussia luciferase without the signal peptide: ratio of mutant luminescence intensity to wild-type Gaussia luciferase
[1] = Luminescence activity assay of purified Gaussia luciferase mutants on coelenterazine; conditions: Substrate CTZ (Table 16)
Summary of the method: (§1)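 Readout: luminescence intensity, as ratio to signal-peptide-free wild-type enzyme. Enzyme 1 μg/mL, substrate 100 μM stock, 10 μL + 90 μL; buffer 50 mM Tris-HCl pH 8.0, 100 mM NaCl, 0.1% Tween-20.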

[2] = Luminescence activity assay of purified Gaussia luciferase mutants on fluoro-coelenterazine; conditions: Substrate f-CTZ (Table 16)
Summary of the method: as §1

[3] = Luminescence activity assay of purified Gaussia luciferase mutants on coelenterazine derivative ZS2; conditions: Substrate ZS2 (Table 16)
Summary of the method: as §1

Molecule	Activity of mutant relative to wild-type Gaussia luciferase without the signal peptide [1]	Activity of mutant relative to wild-type Gaussia luciferase without the signal peptide [2]	Activity of mutant relative to wild-type Gaussia luciferase without the signal peptide [3]
P84A E102A S103I D123L V138D: Gaussia luciferase mutant (protein, SIGNAL (1)..(17), Gaussia luciferase mutant) MGVKVLFALICIAVAEAKPTENNEDFNIVAVASNFATTDLDADRGKLPGKKLPLEVLKEMEANARKAGCTRGCLICLSHIKCTAKMKKFIPGRCHTYEGDKAIAQGGIGEAIVDIPEIPGFKLLEPMEQFIAQVDLCDDCTTGCLKGLANVQCSDLLKKWLPQRCATFASKIQGQVDKIKGAGGD	0.473	0.991	0.825
E102K S103T A104G E110G V138D: Gaussia luciferase mutant (protein, SIGNAL (1)..(17), Gaussia luciferase mutant) MGVKVLFALICIAVAEAKPTENNEDFNIVAVASNFATTDLDADRGKLPGKKLPLEVLKEMEANARKAGCTRGCLICLSHIKCTPKMKKFIPGRCHTYEGDKKTGQGGIGGAIVDIPEIPGFKDLEPMEQFIAQVDLCDDCTTGCLKGLANVQCSDLLKKWLPQRCATFASKIQGQVDKIKGAGGD	0.106	4.919	0.065
P84K E102K S103I E110P L124M V138D: Gaussia luciferase mutant (protein, SIGNAL (1)..(17), Gaussia luciferase mutant) MGVKVLFALICIAVAEAKPTENNEDFNIVAVASNFATTDLDADRGKLPGKKLPLEVLKEMEANARKAGCTRGCLICLSHIKCTKKMKKFIPGRCHTYEGDKKIAQGGIGPAIVDIPEIPGFKDMEPMEQFIAQVDLCDDCTTGCLKGLANVQCSDLLKKWLPQRCATFASKIQGQVDKIKGAGGD	0.036	3.010	0.536
P84A E102A S103I E110P D123N: Gaussia luciferase mutant (protein, SIGNAL (1)..(17), Gaussia luciferase mutant) MGVKVLFALICIAVAEAKPTENNEDFNIVAVASNFATTDLDADRGKLPGKKLPLEVLKEMEANARKAGCTRGCLICLSHIKCTAKMKKFIPGRCHTYEGDKAIAQGGIGPAIVDIPEIPGFKNLEPMEQFIAQVDLCVDCTTGCLKGLANVQCSDLLKKWLPQRCATFASKIQGQVDKIKGAGGD	1.343	1.802	1.409
Q152H Q163D S170N G174S Q175E D177S A182Y: Gaussia luciferase mutant (protein, SIGNAL (1)..(17), Gaussia luciferase mutant) MGVKVLFALICIAVAEAKPTENNEDFNIVAVASNFATTDLDADRGKLPGKKLPLEVLKEMEANARKAGCTRGCLICLSHIKCTPKMKKFIPGRCHTYEGDKESAQGGIGEAIVDIPEIPGFKDLEPMEQFIAQVDLCVDCTTGCLKGLANVHCSDLLKKWLPDRCATFANKIQSEVSKIKGYGGD	1.007	0.404	0.347
Q152H Q163D T167G S170V G174K Q175E K178N: Gaussia luciferase mutant (protein, SIGNAL (1)..(17), Gaussia luciferase mutant) MGVKVLFALICIAVAEAKPTENNEDFNIVAVASNFATTDLDADRGKLPGKKLPLEVLKEMEANARKAGCTRGCLICLSHIKCTPKMKKFIPGRCHTYEGDKESAQGGIGEAIVDIPEIPGFKDLEPMEQFIAQVDLCVDCTTGCLKGLANVHCSDLLKKWLPDRCAGFAVKIQKEVDNIKGAGGD	1.749	0.215	0.862
Q152H Q163T T167G S170D G174N A182M G183A: Gaussia luciferase mutant (protein, SIGNAL (1)..(17), Gaussia luciferase mutant) MGVKVLFALICIAVAEAKPTENNEDFNIVAVASNFATTDLDADRGKLPGKKLPLEVLKEMEANARKAGCTRGCLICLSHIKCTPKMKKFIPGRCHTYEGDKESAQGGIGEAIVDIPEIPGFKDLEPMEQFIAQVDLCVDCTTGCLKGLANVHCSDLLKKWLPTRCAGFADKIQNQVDKIKGMAGD	0.080	0.478	0.001
Q152H Q163D T167S S170D G174K Q175E K178S A182Y G183N: Gaussia luciferase mutant (protein, SIGNAL (1)..(17), Gaussia luciferase mutant) MGVKVLFALICIAVAEAKPTENNEDFNIVAVASNFATTDLDADRGKLPGKKLPLEVLKEMEANARKAGCTRGCLICLSHIKCTPKMKKFIPGRCHTYEGDKESAQGGIGEAIVDIPEIPGFKDLEPMEQFIAQVDLCVDCTTGCLKGLANVHCSDLLKKWLPDRCASFADKIQKEVDSIKGYNGD	0.383	0.509	0.068
Q152H Q163D T167S S170N G174K A182L G183N: Gaussia luciferase mutant (protein, SIGNAL (1)..(17), Gaussia luciferase mutant) MGVKVLFALICIAVAEAKPTENNEDFNIVAVASNFATTDLDADRGKLPGKKLPLEVLKEMEANARKAGCTRGCLICLSHIKCTPKMKKFIPGRCHTYEGDKESAQGGIGEAIVDIPEIPGFKDLEPMEQFIAQVDLCVDCTTGCLKGLANVHCSDLLKKWLPDRCASFANKIQKQVDKIKGLNGD	0.144	0.234	0.159
Q152H Q163T T167G S170N Q175E A182L G183A: Gaussia luciferase mutant (protein, SIGNAL (1)..(17), Gaussia luciferase mutant) MGVKVLFALICIAVAEAKPTENNEDFNIVAVASNFATTDLDADRGKLPGKKLPLEVLKEMEANARKAGCTRGCLICLSHIKCTPKMKKFIPGRCHTYEGDKESAQGGIGEAIVDIPEIPGFKDLEPMEQFIAQVDLCVDCTTGCLKGLANVHCSDLLKKWLPTRCAGFANKIQGEVDKIKGLAGD	0.177	0.172	0.087
N27Y V29G A30D V31L A32V S33V A36G T37D L40F Y97*: Gaussia luciferase mutant (protein, SIGNAL (1)..(17), Gaussia luciferase mutant) MGVKVLFALICIAVAEAKPTENNEDFYIGDLVVNFGDTDFDADRGKLPGKKLPLEVLKEMEANARKAGCTRGCLICLSHIKCTPKMKKFIPGRCHTEGDKESAQGGIGEAIVDIPEIPGFKDLEPMEQFIAQVDLCVDCTTGCLKGLANVQCSDLLKKWLPQRCATFASKIQGQVDKIKGAGGD	0.000	0.009	0.001
N27D V29Y A30G V31L A32V S33K A36D L40V: Gaussia luciferase mutant (protein, SIGNAL (1)..(17), Gaussia luciferase mutant) MGVKVLFALICIAVAEAKPTENNEDFDIYGLVKNFDTTDVDADRGKLPGKKLPLEVLKEMEANARKAGCTRGCLICLSHIKCTPKMKKFIPGRCHTYEGDKESAQGGIGEAIVDIPEIPGFKDLEPMEQFIAQVDLCVDCTTGCLKGLANVQCSDLLKKWLPQRCATFASKIQGQVDKIKGAGGD	0.146	0.155	0.120
P53L: Gaussia luciferase mutant (protein, SIGNAL (1)..(17), Gaussia luciferase mutant) MGVKVLFALICIAVAEAKPTENNEDFNIVAVASNFATTDLDADRGKLPGKKLLLEVLKEMEANARKAGCTRGCLICLSHIKCTPKMKKFIPGRCHTYEGDKESAQGGIGEAIVDIPEIPGFKDLEPMEQFIAQVDLCVDCTTGCLKGLANVQCSDLLKKWLPQRCATFASKIQGQVDKIKGAGGD	0.007	0.010	0.002
P84K E102A: Gaussia luciferase mutant (protein, SIGNAL (1)..(17), Gaussia luciferase mutant) MGVKVLFALICIAVAEAKPTENNEDFNIVAVASNFATTDLDADRGKLPGKKLPLEVLKEMEANARKAGCTRGCLICLSHIKCTKKMKKFIPGRCHTYEGDKASAQGGIGEAIVDIPEIPGFKDLEPMEQFIAQVDLCVDCTTGCLKGLANVQCSDLLKKWLPQRCATFASKIQGQVDKIKGAGGD	0.000	0.009	0.001

From patent US20250066745A1, “MUTANTS AND USE THEREOF” (BGI SHENZHEN, priority 2021, published 2025)
